Source: patent US20240239864A1

Molecular target: HLA-A2 (HLA-A*02:01) on cells (T2 cells; K562A2 cells) (human)
Test: T2 peptide-binding assay: T2 cells with peptide at 100 µg/mL overnight, surface HLA-A2 by flow cytometry (T2 only: 3.34E+05)
Conditions: remark: other sources report otherwise

Mean Fluorescence Intensity (surface HLA-A2): 305000
Binder: NTDNNLAVY (peptide, UniProt Q5H943 52-60, looked up) [KKLC1 p52-60 peptide (HLA-A1 restricted control), Q5H943 52-60]
